# Measured values as given in publication PMC12790879.
# Biological target: RHT1‐GRAS (truncated DELLA protein containing only the C‐terminal GRAS domain) (wheat (Triticum turgidum ssp. durum, cultivar Kronos))
# Assay: two-hybrid; yeast-three-hybrid (Y3H), quantitative alpha-galactosidase activity; DELLA-GRAS as AD, SPL3 or SPL4 as BD, VRN1 or FUL2 expressed as third protein; Method S10
percent decrease of the DELLA-SPL3 interaction (m1 with m2) when expressed as third protein [%],percent decrease of the DELLA-SPL4 interaction (m1 with m3) when expressed as third protein [%],Substance
48,36,VRN1 expressed as the third protein in the yeast‐three‐hybrid system (natural protein)
60,55,FUL2 expressed as the third protein in the yeast‐three‐hybrid system (natural protein)
